From patent US20240376195A1 (BEIGENE, published 2024) come the findings set out here.

The target of assay [1] is T1, his-tagged human NKp30 (human, UniProt O14931 19-135).
T1 construct: Analyte of the SPR assay; not shown: his tag
T1 sequence: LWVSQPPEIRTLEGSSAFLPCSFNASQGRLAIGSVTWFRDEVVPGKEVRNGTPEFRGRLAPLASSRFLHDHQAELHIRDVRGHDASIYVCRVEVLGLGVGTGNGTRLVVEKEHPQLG
In words: SPR, antibody captured on anti-human Fc surface. An excerpt: (§1) Further engineered versions of humanized monoclonal antibodies were derived from the mutation process described as above and characterized in detail. […] For affinity determination, antibodies were captured by anti-human Fc surface, and used in the affinity assay based on surface plasmon resonance (SPR) technology. All the humanization antibodies shown above were also confirmed for functional activities on primary human immune cells isolated from healthy donors (described in Example 7 below).

In assay [2] the target is T1, his-tagged human NKp30. In words: SPR, antibody captured on anti-human Fc surface; NKp30 analyte not named in Example 4.
Source text: as §1
A general note: SPR reads the build-up and loss of mass on a sensor chip optically.

In assay [3] the target is T2, full-length human NKp30 on NK92MI cells (human, UniProt O14931 19-201).
T2 construct: Full-length human NKp30 over-expressed on NK92MI cells; also called huNKp30; native NKp30
T2 sequence: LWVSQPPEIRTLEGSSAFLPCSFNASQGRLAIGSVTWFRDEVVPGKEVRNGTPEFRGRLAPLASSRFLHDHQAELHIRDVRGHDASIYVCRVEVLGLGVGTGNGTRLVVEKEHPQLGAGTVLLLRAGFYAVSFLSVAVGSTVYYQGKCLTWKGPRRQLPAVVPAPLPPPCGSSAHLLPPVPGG
In words: flow cytometry on live NK92MI cells over-expressing human NKp30, goat anti-human IgG detection. On the procedure: To evaluate the binding activity of anti-NKp30 antibodies to native NKp30 on living cells, NK92MI cells were transfected to over-express human NKp30. Live NK92mi/NKp30 expressing cells were seeded in 96-well plates and were incubated with a serial dilution of anti-NKp30 antibodies. Goat anti-Human IgG was used as secondary antibody to detect antibody binding to the cell surface. EC₅₀ values for dose-dependent binding to human native NKp30 were determined by fitting the dose-response data to the four-parameter logistic model with GraphPad Prism™.

The target in the next assay is T3, W20A.
T3 construct: single alanine mutant; also called mutant Nkp30-Fc W20A
T3 Fc fusion chain: T1 sequence with W2A
In words: ELISA; 50 ng Nkp30-Fc variant coated, antibody at 20 nM, HRP-linked secondary antibody; signal relative to wild type. On the procedure:
(§2) To characterize the binding epitope of BGA1833, 10 amino acid residues of NKp30 were mutated to alanine individually to generate 10 single-mutation NKp30 variants based upon the information from the crystal structure of NKp30 reported previously (Li et al., J Exp Med. 2011 208:703-714). The mutant NKp30 proteins along with the wild-type NKp30 protein were analyzed for their recognition and binding by BGA1833. Another humanized anti-NKp30 antibody, BGA1913, was also analyzed in the same ELISA assay for comparison. In this assay, 50 ng each of wild-type or mutant Nkp30-Fc was coated in an ELISA plate. After blocking, 100 μl of BGA1833 or BGA1913 antibody at a concentration of 20 nM was added to the plate and the binding signal of each antibody was detected by HRP-linked secondary antibody. All ELISA results were normalized using the mean values of the ELISA reading of wild type NKp30-Fc binding signal as the standard. To simplify data analysis, if an antibody's ELISA binding signal for a specific mutant NKp30 dropped to or below 25%, then the amino acid at that site was considered critical to the epitope.

For the next assay, the target named is T4, S52A.
T4 construct: single alanine mutant; also called mutant Nkp30-Fc S52A
T4 Fc fusion chain: T1 sequence with S34A
The description is as above. On the procedure: as §2

For a further assay, the target named is T5, E65A.
T5 construct: single alanine mutant; also called mutant Nkp30-Fc E65A
T5 Fc fusion chain: T1 sequence with E47A
The description is as above. On the procedure: as §2

The target in a further assay is T6, R109A.
T6 construct: single alanine mutant; also called mutant Nkp30-Fc R109A
T6 Fc fusion chain: T1 sequence with R91A
Described as above. On the procedure: as §2

The target of another assay is T7, E111A.
T7 construct: single alanine mutant; also called mutant Nkp30-Fc E111A
T7 Fc fusion chain: T1 sequence with E93A
Described as above. On the procedure: as §2

The next assay addresses T8, V117A.
T8 construct: single alanine mutant; also called mutant Nkp30-Fc V117A
T8 Fc fusion chain: T1 sequence with V99A
The assay is described as above. On the procedure: as §2

The target in the next assay is T9, T119A.
T9 construct: single alanine mutant; also called mutant Nkp30-Fc T119A
T9 Fc fusion chain: T1 sequence with T101A
The description is as above. On the procedure:
as §2

For a further assay, the target named is T10, K129A.
T10 construct: single alanine mutant; also called mutant Nkp30-Fc K129A
T10 Fc fusion chain: T1 sequence with K111A
The assay is described as above. On the procedure:
as §2

Changes are numbered by the printed parent chain.

B1: BGA1833 (antibody, human IgG1, kappa)
heavy: QVQLVQSGAEVKKPGASVKVSCKASGYTFTSSYMHWVRQAPGQGLEWMGEIHPNRDNTNYNEKFKGRVTMTRDTSTSTVYMELSSLRSEDTAVYYCARSYYEYGGAYFDAWGQGTLVTVSSASTKGPSVFPLAPSSKSTSGGTAALGCLVKDYFPEPVTVSWNSGALTSGVHTFPAVLQSSGLYSLSSVVTVPSSSLGTQTYICNVNHKPSNTKVDKKVEPKSCDKTHTCPPCPAPPAAGPSVFLFPPKPKDTLMISRTPEVTCVVVDVSHEDPEVKFNWYVDGVEVHNAKTKPREEQYNSTYRVVSVLTVLHQDWLNGKEYKCKVSNKALAAPIEKTISKAKGQPREPQVYTLPPSRDELTKNQVSLTCLVKGFYPSDIAVEWESNGQPENNYKTTPPVLDSDGSFFLYSKLTVDKSRWQQGNVFSCSVMHEALHNHYTQKSLSLSPGK
light: QIQLTQSPSSLSASVGDRVTITCKASQDVSTAVAWYQQKPGKAPKLLIYAASYRHIGVPSRFSGSGSGTDFTLTISSLQPEDFATYYCQQHYSNPFTFGGGTKVEIKRTVAAPSVFIFPPSDEQLKSGTASVVCLLNNFYPREAKVQWKVDNALQSGNSQESVTEQDSKDSTYSLSSTLTLSKADYEKHKVYACEVTHQGLSSPVTKSFNRGEC
notes: also called BGA1833 (IgG1mf format)
As usually defined, the Kd is the equilibrium constant for the complex coming apart. A higher Kd goes with weaker binding. As a reminder, the koff is the rate constant with which the complex falls apart. Higher therefore signals a short-lived complex. For orientation: kon means the second-order rate constant of association. Lower therefore signals slow association. What is called EC50 is the concentration giving half of the maximal effect. With B1, in the assay with his-tagged human NKp30 [1], the “fold lower affinity than the initial antibody” value was approximately 10 fold. The same molecule yielded a Kd with his-tagged human NKp30 [2] of 1.92 nM. In the assay with his-tagged human NKp30 [2], this molecule had a koff of 0.00278 s⁻¹. In the assay with his-tagged human NKp30 [2], this molecule showed a kon of 1.45e+06 M⁻¹ s⁻¹. The molecule further registered an EC50 in assay [3] of 1.31 nM. Also, the binding result with W20A, in the assay with S52A, in the assay with E65A, with R109A, with E111A and with V117A was “binds” throughout. The binding result in the assay with T119A and with K129A was “binds” each time.
